Results on 2 molecules are retold here after US20240043551A1 (ADLAI NORTYE BIOPHARMA, published 2024).

In assay [1] the target is T1, His tagged human TNFR2 ECD (Acro Biosystem, TN2-H5227) (human, UniProt P20333 23-257).
T1 construct: extracellular domain; Bought protein; also called TNFR2-His; hTNFR2-His; not shown: His tag
T1 sequence (looked up): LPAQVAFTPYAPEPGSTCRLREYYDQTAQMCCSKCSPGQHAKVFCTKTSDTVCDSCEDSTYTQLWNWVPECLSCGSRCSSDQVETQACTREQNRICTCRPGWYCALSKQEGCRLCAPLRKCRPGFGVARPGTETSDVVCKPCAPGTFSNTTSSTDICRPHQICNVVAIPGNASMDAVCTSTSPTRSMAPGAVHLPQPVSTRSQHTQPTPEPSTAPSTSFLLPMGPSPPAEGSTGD
Kind of assay: ELISA, TNFR2-His coated, antibody 0.006 and 0.06 µg/well.

Assay [2] has as its target T2, Full length human TNFR2 on Jurkat E6-1 cells (Clone NO.3) (human, UniProt P20333 23-461).
T2 construct: whole, on cells; also called human TNFR2+ Jurkat cells; hTNFR2 Jurkat
T2 sequence (looked up): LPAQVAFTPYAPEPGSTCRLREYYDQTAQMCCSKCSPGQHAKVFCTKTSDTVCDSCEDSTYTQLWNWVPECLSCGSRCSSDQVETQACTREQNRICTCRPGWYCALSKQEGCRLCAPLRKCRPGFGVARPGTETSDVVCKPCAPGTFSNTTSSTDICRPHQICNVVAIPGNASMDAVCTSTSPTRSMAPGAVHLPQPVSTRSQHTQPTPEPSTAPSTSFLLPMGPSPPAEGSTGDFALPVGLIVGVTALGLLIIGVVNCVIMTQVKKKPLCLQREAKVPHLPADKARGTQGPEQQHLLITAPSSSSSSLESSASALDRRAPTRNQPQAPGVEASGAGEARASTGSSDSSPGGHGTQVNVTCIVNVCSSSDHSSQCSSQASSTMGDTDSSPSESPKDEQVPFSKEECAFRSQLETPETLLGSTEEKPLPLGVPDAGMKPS
As to the kind of experiment: FACS on human TNFR2+ Jurkat Clone No.3, biotinylated antibody with streptavidin-PE. The protocol:
FACS analysis was used to evaluate the binding of purified anti-TNFR2 antibody candidates produced from example 6 to cell surface TNFR2 target. Anti-human TNFR2 antibodies and negative control IgG were biotinylated using a EZ-Link™ Micro Sulfo-NHS-Biotinylation Kit (Thermo Fisher Scientific, 21925) according to manufacturer's instructions. Biotinylated antibodies (100 μg/mL) were then incubated with Halt™ Protease Inhibitor Cocktail (100X, Thermo Scientific, 1862209) and 80 μg/mL Streptavidin-R-Phycoerythrin (PE) conjugate (Invitrogen, S21388). Antibodies were stored at 4° C. until use. 5×10⁵ Clone No.3 of human TNFR2⁺ Jurkat cells were distributed each well and blocked with human TruStain FcX™ (Biolegend, 422302) for 10 minutes at room temperature before stained with a serially diluted PE conjugated anti-human TNFR2 antibodies or hIgG1 starting from 50 μg/mL in a 5-fold dilution fashion for 30 minutes at 4° C. PE-anti hTNFR2 (Clone MR2-1, Thermo fisher #TNFR7504) was used as positive control. The geometric mean fluorescent intensity was measured on Sony SA3800 cell analyzer. Data were analyzed using Flowjo Software (Tree star Inc).

Assay [3] has as its target T3, Human TNFR1 (Acro Biosystem, TN1-H5222) (human, UniProt P19438 30-211).
T3 construct: Bought protein; also called TNF receptor type 1; CD120a
T3 sequence (looked up): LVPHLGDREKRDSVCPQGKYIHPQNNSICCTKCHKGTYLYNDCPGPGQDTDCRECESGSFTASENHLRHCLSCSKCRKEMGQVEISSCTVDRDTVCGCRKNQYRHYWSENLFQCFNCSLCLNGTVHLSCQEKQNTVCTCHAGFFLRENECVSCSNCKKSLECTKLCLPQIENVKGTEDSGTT
Kind of assay: ELISA, receptor coated at 1 µg/mL. The method, then: (§1) Human TNFR2 (Acro Biosystem, TN2-H5227), Human TNFR1 (Acro Biosystem, TN1-H5222), Cynomolgus TNFR2 (Sino Biological, 90102-CO8H) or mouse TNFR2 (R&D systems, 426-R2-050/CF) was coated on high binding polystyrene flat bottom micro-titer plates (Thermo Scientific, 3455) in PBS (PH=7.4, Gibco,10010-031) at 1 μg/mL and 100 μL per well. Plates were incubated at 4° C. overnight.
(§2) Plates were warmed up to room temperature the next day and washed with 200 μL PBS containing 0.1% Tween 20 (Life technologies, 003005) per well for 3 times. Plates were blocked with 200 μL PBS buffer containing 1% BSA (Fisher Scientific, BP1600-100) per well for 1 hour at 37° C. Antibodies was titrated from 5 μg/mL in a 5-fold dilution series, distributed 100 μL per well and incubated at 37° C. for 1 hour. Human IgG1 isotype control (BioxCell, BE0297) was used as negative control. Plates were washed with 200 μL PBS containing 0.1% Tween 20 (Life technologies, 003005) per well for 3 times. Goat anti-Human IgG Fc Secondary Antibody-HRP conjugate (Invitrogen, A18817) were distributed at 0.5μg/mL and 100 μL per well to detect bound antibodies. After 1-hour incubation of secondary antibody at 37° C., plates were washed with 200 μL PBS containing 0.1% Tween 20 (Life technologies, 003005) per well for 3 times. Plates were developed using TMB Substrate Solution (eBioscience, 00-4201-56) and stopped with ELISA stop solution (Invitrogen, SSO4). The level of bound antibodies was determined by reading absorbance at 450 nm. Mouse anti-human TNFR1 antibody (ThermoFisher Scientific, MA1-81005) and goat anti mouse IgG secondary antibody-HRP conjugate (Invitrogen, 62-5520) were used as positive control for human TNFR1 detection. Armenian Hamster anti-mouse TNFR2 antibody (InVivoMab, BE0247) and HRP-Goat anti-Armenian Hamster IgG (H+L) Secondary Antibody (Invitrogen, PA1-32045) were used as positive control for mouse TNFR2 detection.

In assay [4] the target is T4, mouse TNFR2 (R&D systems, 426-R2-050/CF) (mouse, UniProt P25119 23-258).
T4 construct: Bought protein
T4 sequence (looked up): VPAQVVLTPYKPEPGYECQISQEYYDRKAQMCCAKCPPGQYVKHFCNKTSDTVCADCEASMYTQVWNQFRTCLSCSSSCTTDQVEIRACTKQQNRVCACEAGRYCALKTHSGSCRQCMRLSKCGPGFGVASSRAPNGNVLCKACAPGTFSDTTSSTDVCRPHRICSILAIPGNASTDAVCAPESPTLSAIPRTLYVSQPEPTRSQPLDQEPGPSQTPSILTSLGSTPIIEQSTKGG
As to the kind of experiment: ELISA, receptor coated at 1 µg/mL. The protocol:
as §1, §2

The target of assay [5] is T5, rat TNFR2 (R&D systems, 8348-R2-050) (rat, UniProt Q80WY6 23-258).
T5 construct: Bought protein
T5 sequence (looked up): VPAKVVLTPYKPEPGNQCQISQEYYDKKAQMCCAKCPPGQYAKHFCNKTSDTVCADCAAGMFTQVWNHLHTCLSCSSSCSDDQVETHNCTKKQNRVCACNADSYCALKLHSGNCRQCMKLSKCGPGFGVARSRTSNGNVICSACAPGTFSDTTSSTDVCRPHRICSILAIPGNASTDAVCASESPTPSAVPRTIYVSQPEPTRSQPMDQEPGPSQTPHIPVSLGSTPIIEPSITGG
Kind of assay: ELISA, receptor coated at 1 µg/ml. The protocol: Plates were incubated at 4° C. overnight. Antibodies was titrated from 100 μg/ml in a 5-fold dilution series, and distributed 100 μL, per well and incubated at 37° C. for 1 hour. Human IgG1 isotype control (BioxCell, BE0297) was used as negative control. TNFR2 Polyclonal Antibody (Invitrogen, PAS-80159) and HRP conjugated Goat anti-Rabbit IgG Fc Secondary Antibody (Invitrogen, A16116) were used as positive control for rat TNFR2 detection.

Assay [6] deals with T1, His tagged human TNFR2 ECD (Acro …). Kind of assay: monoclonal phage ELISA, hTNFR2-His coated, anti-M13-HRP. The protocol: A 96-well ELISA plate was coated with hTNFR2-His and blocked with PBS buffer containing 2% BSA at […], of pre-blocked phage solution was added to the plate and incubated at 37° C. for 30 min. After the plate was washed twice with PBS buffer containing 0.05% Tween 20, phage binding was detected by HRP-conjugated anti-M13 antibody (GE Healthcare). Top binders were picked and the corresponding phagemids in TG1 cell were isolated and subjected to DNA sequencing to obtain VH/VL sequence. The sequences of TN1-36_VH and TN1-36_VL are set forth as SEQ ID NO: 1 and SEQ ID NO: 2, respectively. Antibody numbering and CDR annotation are performed according to IMGT scheme respectively.

B1: TN36-2 (antibody, human IgG1, V domains shown)
VH: EVQLVESGGGLIQPGGSLRLSCAASGFSLSSSAVSWVRQAPGKGLEWIGAIGSGGTSYYSNWAKSRFTISRDNSKNTLYLQMNSLRAEDTAVYYCARDPNSSDYPYGAYGMGLWGRGTLVTVSS
VL: DIQMTQSPSSLSASVGDRVTITCQVSQSISSYLSWYQQKPGKAPKLLIYYASTLASGVPSRFSGSGSGTDFTLTISSLQPEDFATYYCQQGYITSNVGNAFGGGTKVEIK
notes: Humanized; also called AL2/AL8
B1: the binding result is recorded as “binds” in assay [1]; “binds” in assay [2]; “no binding (tested: titrated from 5 µg/mL)” in assay [3]; “no binding (tested: titrated from 5 µg/mL)” in assay [4]; “no binding (tested: titrated from 100 µg/ml)” in assay [5].

B2: TN1-36 scFv on phage (scFv, V domains shown)
VH: QQSVKESEGGLFKPTDTLTLTCTVSGFSLSSSAVSWVRQAPGNGLEWIGAIGSGGTSYYSNWAKSRSTITRDTNLNTVTLKMTSLTAADTATYFCARDPNSSDYPYGAYGMGLWGPGTLVTVSS
VL: ELDLTQTPASVEVAAGGTVTINCQVSQSISSYLSWYQQKPGQPPKLLIYYASTLASGVPSRFSGSGSGTEFTLTISGVQCDDAATYYCQQGYITSNVGNAFGGGTEVVVK
notes: also called TN1-36_VH/TN1-36_VL
As for B2, the binding result in assay [6] is “binds”.
